Measured values taken from FireProtDB (doi:10.1016/s0022-2836(03)00725-3).
Where “and” joins values, the source holds several entries; their conditions need not be identical. Identical values can stand only once.

Settings: Escherichia coli (strain K12), pH 7.4, Thermal, DSC, sodium phosphate 10 mM, transition: 3, reversible: yes, whole UniProt chain shown

B1: DNA-binding protein HU-alpha wild type, P0ACF0 (protein)
chain: MNKTQLIDVIAEKAELSKTQAKAALESTLAAITESLKEGDAVQLVGFGTFKVNHRAERTGRNPQTGKEIKIAAANVPAFVSGKALKDAVK
heat capacity change of unfolding (NaCl 1 M): 0.55 kcal/mol/K and 0.9 kcal/mol/K | unfolding enthalpy (calorimetric) (NaCl 1 M): 208 kJ/mol and 164 kJ/mol and 141 kJ/mol | Tm (NaCl 1M): 69 °C | heat capacity change of unfolding (NaCl 1M): 0.55 kcal/mol/K | unfolding enthalpy (calorimetric) (NaCl 1M): 179 kJ/mol
